Drawing on publication PMC8875297, this text covers degradation_or_half_life and other for three substances.

Like-named read-outs stand apart in the source and are kept apart here.

For the substance “cyclin D1: AMBRA1 depletion (siRNA, AMBRA1-/-, auxin-inducible degron)”, under “ubiquitination at K269”, the degradation_or_half_life entry is listed as “decreases”.
For cyclin D1: MLN4924, where the note is “ubiquitination at K269”, the degradation_or_half_life result is on record as “decreases”.
Consider cyclin D1: T286A, for which, for the setting “phosphorylation at T286”, the degradation_or_half_life entry is recorded as “decreases” and the other entry is listed as “abolishes”.
